Experimental data from IntAct's records for PubMed 26307080.

B1: Protein phosphatase 1 regulatory subunit 15B (Homo sapiens), Q5SWA1 (parent)
chain: MEPGTGGSRKRLGPRAGFRFWPPFFPRRSQAGSSKFPTPLGPENSGNPTLLSSAQPETRVSYWTKLLSQLLAPLPGLLQKVLIWSQLFGGMFPTRWLDFAGVYSALRALKGREKPAAPTAQKSLSSLQLDSSDPSVTSPLDWLEEGIHWQYSPPDLKLELKAKGSALDPAAQAFLLEQQLWGVELLPSSLQSRLYSNRELGSSPSGPLNIQRIDNFSVVSYLLNPSYLDCFPRLEVSYQNSDGNSEVVGFQTLTPESSCLREDHCHPQPLSAELIPASWQGCPPLSTEGLPEIHHLRMKRLEFLQQASKGQDLPTPDQDNGYHSLEEEHSLLRMDPKHCRDNPTQFVPAAGDIPGNTQESTEEKIELLTTEVPLALEEESPSEGCPSSEIPMEKEPGEGRISVVDYSYLEGDLPISARPACSNKLIDYILGGASSDLETSSDPEGEDWDEEAEDDGFDSDSSLSDSDLEQDPEGLHLWNSFCSVDPYNPQNFTATIQTAARIVPEEPSDSEKDLSGKSDLENSSQSGSLPETPEHSSGEEDDWESSADEAESLKLWNSFCNSDDPYNPLNFKAPFQTSGENEKGCRDSKTPSESIVAISECHTLLSCKVQLLGSQESECPDSVQRDVLSGGRHTHVKRKKVTFLEEVTEYYISGDEDRKGPWEEFARDGCRFQKRIQETEDAIGYCLTFEHRERMFNRLQGTCFKGLNVLKQC

Variants of: B1
Details: with pp1g_human PPP1CC

| Variant | effect of a mutation on the interaction |
| --- | --- |
| R658C | decreasing interaction strength |

Variants of: B1
Details: with pp1g_human PPP1CC
Remark: another data set of the same source

| Variant | effect of a mutation on the interaction |
| --- | --- |
| R658C | disrupting interaction strength |
